Source: paper PMC9482650, “Quantitative fragmentomics allow affinity mapping of interactomes” (Nature Communications, 2022)

Columns and labels:
Test in all cases: holdup assay
Design in all cases: key: below the threshold = too weak to quantify, mostly under pKd 3.1 to 4
Conditions in all cases: plain residues with an end cap or a label only (N-terminal biotin on a linker: ttds)
[1] = target: PARD3B_2, Q8TEW8
[2] = target: T1, MPP5, Q8N3R9
T1 sequence (Q8N3R9 251-346, limits assumed, looked up): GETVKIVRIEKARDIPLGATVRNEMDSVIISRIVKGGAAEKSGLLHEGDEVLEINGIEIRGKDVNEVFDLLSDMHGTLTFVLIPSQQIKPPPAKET

[3] = target: T2, SHROOM2, Q13796
T2 sequence (Q13796 21-118, limits assumed, looked up): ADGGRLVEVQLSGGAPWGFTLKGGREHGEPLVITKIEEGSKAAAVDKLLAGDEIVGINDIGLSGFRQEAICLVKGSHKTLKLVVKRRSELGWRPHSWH

[4] = target: T3, DVL1, O14640
T3 sequence (O14640 246-333, limits assumed, looked up): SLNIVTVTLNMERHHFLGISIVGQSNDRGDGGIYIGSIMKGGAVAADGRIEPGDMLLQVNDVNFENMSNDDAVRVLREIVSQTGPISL

[5] = target: NHERF4_3, Q86UT5
NHERF4_3, Q86UT5, sequence (Q86UT5 325-412): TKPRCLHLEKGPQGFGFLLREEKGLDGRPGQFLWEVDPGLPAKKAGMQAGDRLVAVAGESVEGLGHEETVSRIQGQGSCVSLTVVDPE

[6] = target: CNKSR3, Q6P9H4
CNKSR3, Q6P9H4, sequence (Q6P9H4 203-303): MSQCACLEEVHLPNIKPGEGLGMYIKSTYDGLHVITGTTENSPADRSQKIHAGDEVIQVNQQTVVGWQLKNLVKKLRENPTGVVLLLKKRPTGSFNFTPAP

[7] = target: MAGI1_4, Q96QZ7
MAGI1_4, Q96QZ7, sequence (Q96QZ7 other isoform, or with tags, fused parts or gaps): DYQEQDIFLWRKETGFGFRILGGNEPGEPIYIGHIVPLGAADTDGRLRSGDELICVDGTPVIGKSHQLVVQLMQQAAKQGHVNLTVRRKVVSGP

[8] = target: Inadl_7, Q8NI35
Inadl_7, Q8NI35, sequence (Q8NI35 1219-1332): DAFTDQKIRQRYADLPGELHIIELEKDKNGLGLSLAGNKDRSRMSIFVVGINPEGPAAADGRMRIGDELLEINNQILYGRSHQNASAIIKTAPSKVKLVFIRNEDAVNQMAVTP

[9] = target: PARD3_1, Q8TEW0
PARD3_1, Q8TEW0, sequence (Q8TEW0 264-372): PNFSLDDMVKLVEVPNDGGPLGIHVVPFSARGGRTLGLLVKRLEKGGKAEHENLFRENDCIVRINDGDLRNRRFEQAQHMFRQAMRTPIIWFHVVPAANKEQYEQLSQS

[10] = target: MAST3, O60307
MAST3, O60307, sequence (O60307 945-1048): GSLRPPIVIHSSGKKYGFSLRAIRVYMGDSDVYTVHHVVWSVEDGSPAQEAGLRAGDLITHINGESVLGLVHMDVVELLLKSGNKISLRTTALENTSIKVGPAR

[11] = target: MAGI1_3, Q96QZ7
MAGI1_3, Q96QZ7, sequence (Q96QZ7 638-725): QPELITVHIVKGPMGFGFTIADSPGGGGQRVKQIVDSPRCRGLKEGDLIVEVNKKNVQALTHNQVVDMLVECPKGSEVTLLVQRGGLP

[12] = target: MAGI3_4, Q5TCQ9
MAGI3_4, Q5TCQ9, sequence (Q5TCQ9 716-815): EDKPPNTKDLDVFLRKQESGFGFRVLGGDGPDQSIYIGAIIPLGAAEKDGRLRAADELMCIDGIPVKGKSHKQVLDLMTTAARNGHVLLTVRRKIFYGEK

[13] = target: CARD14, Q9BXL6
CARD14, Q9BXL6, sequence (Q9BXL6 558-663): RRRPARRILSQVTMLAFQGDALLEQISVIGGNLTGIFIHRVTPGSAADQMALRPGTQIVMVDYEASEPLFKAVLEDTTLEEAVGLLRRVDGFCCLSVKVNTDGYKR

[14] = target: MAGI1_5, Q96QZ7
MAGI1_5, Q96QZ7, sequence (Q96QZ7 986-1098): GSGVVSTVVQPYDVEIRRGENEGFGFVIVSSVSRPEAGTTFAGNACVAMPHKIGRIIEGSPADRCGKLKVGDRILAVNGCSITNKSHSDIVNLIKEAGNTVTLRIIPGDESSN

[15] = target: PDLIM4, P50479
PDLIM4, P50479, sequence (P50479 1-83): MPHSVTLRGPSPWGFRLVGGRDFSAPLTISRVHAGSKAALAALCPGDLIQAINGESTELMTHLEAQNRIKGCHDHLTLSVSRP

[16] = target: T4, PTPN4, P29074
T4 sequence (P29074 512-599, limits assumed, looked up): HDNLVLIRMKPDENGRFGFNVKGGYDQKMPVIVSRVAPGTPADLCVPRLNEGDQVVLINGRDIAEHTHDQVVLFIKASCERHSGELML

[17] = target: T5, PARD6B, Q9BYG5
T5 sequence (Q9BYG5 152-260, limits assumed, looked up): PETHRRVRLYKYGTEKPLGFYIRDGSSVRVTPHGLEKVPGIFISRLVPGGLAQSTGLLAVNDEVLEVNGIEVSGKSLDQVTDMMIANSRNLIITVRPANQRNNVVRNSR

[18] = target: DLG5_2, Q8TDM6
DLG5_2, Q8TDM6, sequence (Q8TDM6 714-800): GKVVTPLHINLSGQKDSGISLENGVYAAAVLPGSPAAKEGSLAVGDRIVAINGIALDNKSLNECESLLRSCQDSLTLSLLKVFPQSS

[19] = target: T6, SIPA1L3, O60292
T6 sequence (O60292 961-1052, limits assumed, looked up): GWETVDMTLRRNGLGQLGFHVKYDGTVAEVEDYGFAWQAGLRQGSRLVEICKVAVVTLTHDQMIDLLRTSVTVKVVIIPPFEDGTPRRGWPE

[20] = target: T7, PTPN13_4, Q12923
T7 sequence (Q12923 1783-1878, limits assumed, looked up): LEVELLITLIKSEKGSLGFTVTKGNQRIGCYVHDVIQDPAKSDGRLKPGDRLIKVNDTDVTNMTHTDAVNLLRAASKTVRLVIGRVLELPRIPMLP

[21] = target: T8, PDZD8, Q8NEN9
T8 sequence (Q8NEN9 361-459, limits assumed, looked up): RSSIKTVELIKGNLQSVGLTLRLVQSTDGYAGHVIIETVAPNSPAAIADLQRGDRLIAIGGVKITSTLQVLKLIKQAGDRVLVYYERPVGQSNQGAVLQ

[22] = target: T9, USH1C_3, Q9Y6N9
T9 sequence (Q9Y6N9 447-547, limits assumed, looked up): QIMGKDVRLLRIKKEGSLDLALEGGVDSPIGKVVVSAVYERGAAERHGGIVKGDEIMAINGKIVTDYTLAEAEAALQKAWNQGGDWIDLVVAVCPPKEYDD

[23] = target: T10, PDZD11, Q5EBL8
T10 sequence (Q5EBL8 42-139, limits assumed, looked up): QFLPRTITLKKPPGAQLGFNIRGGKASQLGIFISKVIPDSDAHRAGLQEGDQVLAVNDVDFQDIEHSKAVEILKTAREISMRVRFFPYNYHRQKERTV

[24] = target: T11, MPDZ_7, O75970
T11 sequence (O75970 1146-1253, limits assumed, looked up): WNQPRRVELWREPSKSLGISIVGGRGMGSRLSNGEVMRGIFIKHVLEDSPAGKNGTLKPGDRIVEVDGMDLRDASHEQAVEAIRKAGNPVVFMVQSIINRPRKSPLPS

[25] = target: T12, SHROOM4, Q9ULL8
T12 sequence (Q9ULL8 5-102, limits assumed, looked up): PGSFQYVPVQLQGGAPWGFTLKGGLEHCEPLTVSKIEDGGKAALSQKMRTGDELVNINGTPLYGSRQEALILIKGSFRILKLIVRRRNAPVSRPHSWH

PARD3B_2, Q8TEW8, sequence (Q8TEW8 376-471): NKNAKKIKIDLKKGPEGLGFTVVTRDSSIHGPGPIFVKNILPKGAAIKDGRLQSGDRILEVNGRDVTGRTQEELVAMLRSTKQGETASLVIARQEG

Binder	pKd [1]	pKd [2]	pKd [3]	pKd [4]	pKd [5]	pKd [6]	pKd [7]	pKd [8]	pKd [9]	pKd [10]	pKd [11]	pKd [12]	pKd [13]	pKd [14]	pKd [15]	pKd [16]	pKd [17]	pKd [18]	pKd [19]	pKd [20]	also measured
IQREDQETAV [DGKZ, Q13574]	below the threshold	below the threshold	below the threshold	below the threshold	below the threshold	below the threshold	below the threshold	below the threshold	below the threshold	below the threshold	4.57	below the threshold	below the threshold	5.06	below the threshold	4.8	below the threshold	below the threshold	below the threshold	below the threshold	pKd [21]: below the threshold; pKd [22]: below the threshold; pKd [23]: below the threshold; pKd [24]: below the threshold; pKd [25]: 4.76
HIVEALETDV [PBK, Q96KB5]	below the threshold	below the threshold	below the threshold	below the threshold	below the threshold	below the threshold	4.34	4.4	below the threshold	below the threshold	4.43	below the threshold	below the threshold	below the threshold	below the threshold	below the threshold	below the threshold	below the threshold	below the threshold	below the threshold	pKd [21]: below the threshold; pKd [22]: below the threshold; pKd [23]: below the threshold; pKd [24]: below the threshold; pKd [25]: below the threshold
SEKHFRETEV [HTLV1-TAX1, P03409]	3.97	below the threshold	below the threshold	below the threshold	3.83	below the threshold	4.28	below the threshold	below the threshold	below the threshold	4.75	3.79	below the threshold	5.22	4.54	4.77	below the threshold	5.06	below the threshold	below the threshold	pKd [21]: below the threshold; pKd [22]: below the threshold; pKd [23]: below the threshold; pKd [24]: 4.44; pKd [25]: below the threshold
MERLRVETDV [ARHGEF16, Q5VV41]	below the threshold	below the threshold	below the threshold	below the threshold	below the threshold	below the threshold	below the threshold	below the threshold	below the threshold	below the threshold	below the threshold	below the threshold	below the threshold	below the threshold	below the threshold	4.25	below the threshold	below the threshold	below the threshold	below the threshold	pKd [21]: below the threshold; pKd [22]: below the threshold; pKd [23]: below the threshold; pKd [24]: below the threshold; pKd [25]: 4.06
DPLTPSRSQL [DGKK, Q5KSL6]	below the threshold	below the threshold	below the threshold	below the threshold	below the threshold	below the threshold	below the threshold	below the threshold	below the threshold	below the threshold	below the threshold	below the threshold	below the threshold	below the threshold	below the threshold	below the threshold	below the threshold	below the threshold	below the threshold	below the threshold	pKd [21]: below the threshold; pKd [22]: below the threshold; pKd [23]: below the threshold; pKd [24]: below the threshold; pKd [25]: below the threshold
